Experimental data reported in publication PMC8726686.

How the values were obtained:
[1] = molecular target: JS016-WT (wild-type control antibody); assay: BLI
[2] = molecular target: Fc gamma receptor Type IIIa, FcγRIIIa (F176) (human) (UniProt P08637); assay: BLI
UniProt P08637, sequence (P08637 17-254): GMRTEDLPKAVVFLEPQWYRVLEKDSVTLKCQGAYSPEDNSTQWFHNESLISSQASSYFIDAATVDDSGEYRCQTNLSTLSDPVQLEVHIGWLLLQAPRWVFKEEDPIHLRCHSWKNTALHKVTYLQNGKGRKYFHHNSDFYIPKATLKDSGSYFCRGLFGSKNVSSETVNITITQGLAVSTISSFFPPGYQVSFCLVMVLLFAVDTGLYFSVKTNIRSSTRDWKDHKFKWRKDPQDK

| Substance | Kd [1] | Kd [2] |
| --- | --- | --- |
| C1q (first subcomponent of the C1 complex) | 2.12 nM |  |
| JS016-WT (wild-type control antibody) |  | 2000 nM |
